The chains are these.
B1: E3 ubiquitin-protein ligase Midline-1, residues 172 to 214; numbered along this chain, O15344 (parent)
chain: GLMCLEHEDEKVNMYCVTDDQLICALCKLVGRHRDHQVAALSE

± gives the uncertainty stated by the source.

Variants of B1 are the subject of this series. Kind of series: abundance fitness (aPCA) (normalised: wild type 0, dead -1); higher = more abundant; growth selection in yeast, the domain comes from the species named. The settings on record: Homo sapiens.
On to GLMCLEHEDEKVNVYCVTDDQLICALCKLVGRHRDHQVAALSE, for which the abundance fitness is -0.386 ± 0.064.

Turning to GLMCLEHEDEKVNQYCVTDDQLICALCKLVGRHRDHQVAALSE, the abundance fitness came out at 0.242 ± 0.066.

As for GLMCLEHEDEKVNNYCVTDDQLICALCKLVGRHRDHQVAALSE, the abundance fitness was -0.028 ± 0.18.

As for GLMCLEHEDEKVNWYCVTDDQLICALCKLVGRHRDHQVAALSE, the abundance fitness is -0.055 ± 0.056.

Consider GLMCLEHEDEKVNCYCVTDDQLICALCKLVGRHRDHQVAALSE, for which the abundance fitness worked out at 0.137 ± 0.11.

GLMCLEHEDEKVNFYCVTDDQLICALCKLVGRHRDHQVAALSE: the abundance fitness is -0.451 ± 0.49.

For the variant GLMCLEHEDEKVNDYCVTDDQLICALCKLVGRHRDHQVAALSE, the abundance fitness is 0.09 ± 0.12.

Regarding GLMCLEHEDEKVNKYCVTDDQLICALCKLVGRHRDHQVAALSE, the abundance fitness came out at 0.121 ± 0.21.

In the case of GLMCLEHEDEKKNMYCVTDDQLICALCKLVGRHRDHQVAALSE, the abundance fitness was found to be 0.319 ± 0.14.

Turning to GLMCLEHEDEKWNMYCVTDDQLICALCKLVGRHRDHQVAALSE, the abundance fitness was -0.251 ± 0.095.

With GLMCLEHEDEKGNMYCVTDDQLICALCKLVGRHRDHQVAALSE, the abundance fitness amounted to 0.026 ± 0.048.

GLMCLEHEDEKPNMYCVTDDQLICALCKLVGRHRDHQVAALSE: the abundance fitness is -0.51 ± 0.34.

On to GLMCLEHEDEKMNMYCVTDDQLICALCKLVGRHRDHQVAALSE, for which the abundance fitness is -0.042 ± 0.12.

In the case of GLMCLEHEDEKFNMYCVTDDQLICALCKLVGRHRDHQVAALSE, the abundance fitness came to 0.301 ± 0.3.

In the case of GLMCLEHEDEKCNMYCVTDDQLICALCKLVGRHRDHQVAALSE, the abundance fitness was -0.231 ± 0.37.

Take GLMCLEHEDEKYNMYCVTDDQLICALCKLVGRHRDHQVAALSE: the abundance fitness was -0.02 ± 0.16.

GLMCLEHEDEKQNMYCVTDDQLICALCKLVGRHRDHQVAALSE: the abundance fitness was determined as 0.328 ± 0.2.

With GLMCLEHEDEKTNMYCVTDDQLICALCKLVGRHRDHQVAALSE, the abundance fitness is -0.149 ± 0.081.

GLMCLEHEDEKRNMYCVTDDQLICALCKLVGRHRDHQVAALSE: the abundance fitness came to 0.024 ± 0.059.

For GLMCLEHEDEKENMYCVTDDQLICALCKLVGRHRDHQVAALSE, the abundance fitness was -0.122 ± 0.075.

As to GLMCLEHEDEKINMYCVTDDQLICALCKLVGRHRDHQVAALSE, the abundance fitness is 0.093 ± 0.17.

As to GLMCLEHEDEKLNMYCVTDDQLICALCKLVGRHRDHQVAALSE, the abundance fitness was -0.233 ± 0.11.

For the variant GLMCLEHEDEKANMYCVTDDQLICALCKLVGRHRDHQVAALSE, the abundance fitness was -0.208 ± 0.09.

On to GLMCLEHEDEKVNMYCITDDQLICALCKLVGRHRDHQVAALSE, for which the abundance fitness turned out to be 0.235 ± 0.12.

Turning to GLMCLEHEDEKVNMYCWTDDQLICALCKLVGRHRDHQVAALSE, the abundance fitness is -0.176 ± 0.07.

Take GLMCLEHEDEKVNMYCSTDDQLICALCKLVGRHRDHQVAALSE: the abundance fitness worked out at 0.174 ± 0.051.

On to GLMCLEHEDEKVNMYCETDDQLICALCKLVGRHRDHQVAALSE, for which the abundance fitness is 0.135 ± 0.06.

For GLMCLEHEDEKVNMYCKTDDQLICALCKLVGRHRDHQVAALSE, the abundance fitness came to 0.444 ± 0.065.

GLMCLEHEDEKVNMYCNTDDQLICALCKLVGRHRDHQVAALSE: the abundance fitness was determined as 0.545 ± 0.22.

Turning to GLMCLEHEDEKVNMYCLTDDQLICALCKLVGRHRDHQVAALSE, the abundance fitness was -0.094 ± 0.061.

Consider GLMCLEHEDEKVNMYCATDDQLICALCKLVGRHRDHQVAALSE, for which the abundance fitness stood at 0.172 ± 0.049.

Take GLMCLEHEDEKVNMYCDTDDQLICALCKLVGRHRDHQVAALSE: the abundance fitness is 0.113 ± 0.067.

Take GLMCLEHEDEKVNMYCCTDDQLICALCKLVGRHRDHQVAALSE: the abundance fitness was 0.173 ± 0.072.

Take GLMCLEHEDEKVNMYCTTDDQLICALCKLVGRHRDHQVAALSE: the abundance fitness was -0.027 ± 0.069.

As for GLMCLEHEDEKVNMYCQTDDQLICALCKLVGRHRDHQVAALSE, the abundance fitness was found to be 0.275 ± 0.065.

As for GLMCLEHEDEKVNMYCHTDDQLICALCKLVGRHRDHQVAALSE, the abundance fitness is 0.29 ± 0.095.

With GLMCLEHEDEKVNMYCGTDDQLICALCKLVGRHRDHQVAALSE, the abundance fitness was 0.092 ± 0.045.

As to GLMCLEHEDEKVNMYCRTDDQLICALCKLVGRHRDHQVAALSE, the abundance fitness came to 0.176 ± 0.048.

As to GLMCLEHEDEKVNMYCYTDDQLICALCKLVGRHRDHQVAALSE, the abundance fitness was -0.071 ± 0.16.

GLMCLEHEDEKVNMYWVTDDQLICALCKLVGRHRDHQVAALSE: the abundance fitness was -1.19 ± 0.21.

Consider GLMCLEHEDEKVNMYKVTDDQLICALCKLVGRHRDHQVAALSE, for which the abundance fitness is -0.298 ± 0.18.

In the case of GLMCLEHEDEKVNMYRVTDDQLICALCKLVGRHRDHQVAALSE, the abundance fitness was -0.469 ± 0.062.

Regarding GLMCLEHEDEKVNMYGVTDDQLICALCKLVGRHRDHQVAALSE, the abundance fitness is -0.291 ± 0.049.

With GLMCLEHEDEKVNMYQVTDDQLICALCKLVGRHRDHQVAALSE, the abundance fitness was -0.219 ± 0.076.

For GLMCLEHEDEKVNMYTVTDDQLICALCKLVGRHRDHQVAALSE, the abundance fitness was -0.351 ± 0.1.

Regarding GLMCLEHEDEKVNMYVVTDDQLICALCKLVGRHRDHQVAALSE, the abundance fitness is -0.725 ± 0.096.

On to GLMCLEHEDEKVNMYPVTDDQLICALCKLVGRHRDHQVAALSE, for which the abundance fitness was -0.289 ± 0.065.

Take GLMCLEHEDEKVNMYIVTDDQLICALCKLVGRHRDHQVAALSE: the abundance fitness is -0.127 ± 0.24.

As to GLMCLEHEDEKVNMYAVTDDQLICALCKLVGRHRDHQVAALSE, the abundance fitness was -0.569 ± 0.087.

GLMCLEHEDEKVNMYHVTDDQLICALCKLVGRHRDHQVAALSE: the abundance fitness is -0.215 ± 0.12.

With GLMCLEHEDEKVNMYMVTDDQLICALCKLVGRHRDHQVAALSE, the abundance fitness was -0.674 ± 0.43.

As to GLMCLEHEDEKVNMYNVTDDQLICALCKLVGRHRDHQVAALSE, the abundance fitness is -0.183 ± 0.14.

With GLMCLEHEDEKVNMYYVTDDQLICALCKLVGRHRDHQVAALSE, the abundance fitness was -0.624 ± 0.28.

Turning to GLMCLEHEDEKVNMYSVTDDQLICALCKLVGRHRDHQVAALSE, the abundance fitness is -0.14 ± 0.11.

Take GLMCLEHEDEKVNMYEVTDDQLICALCKLVGRHRDHQVAALSE: the abundance fitness is -0.185 ± 0.065.

As to GLMCLEHEDEKVNMYCVTEDQLICALCKLVGRHRDHQVAALSE, the abundance fitness was -0.012 ± 0.052.

On to GLMCLEHEDEKVNMYCVTCDQLICALCKLVGRHRDHQVAALSE, for which the abundance fitness was -0.175 ± 0.14.

For GLMCLEHEDEKVNMYCVTADQLICALCKLVGRHRDHQVAALSE, the abundance fitness was -0.928 ± 0.088.

GLMCLEHEDEKVNMYCVTFDQLICALCKLVGRHRDHQVAALSE: the abundance fitness is -0.218 ± 0.27.

Source of the values: the Human Domainome abundance scans (Beltran et al. 2025).
